{"source": "patent US20170146518A1", "about": "(CENTRE NATIONAL DE LA RECHERCHE SCIENTIFIQUE CNRS, published 2017)", "key": {"[1]": {"target": "T1, APJ (endogenous, in patient-derived GSCs) (human, UniProt P35414 1-380)", "T1 construct": "Endogenous receptor of patient-derived glioblastoma stem-like cells, tested on intact cells, in membrane preparations or in lysates; also called Apelin receptor; APLNR", "T1 sequence": "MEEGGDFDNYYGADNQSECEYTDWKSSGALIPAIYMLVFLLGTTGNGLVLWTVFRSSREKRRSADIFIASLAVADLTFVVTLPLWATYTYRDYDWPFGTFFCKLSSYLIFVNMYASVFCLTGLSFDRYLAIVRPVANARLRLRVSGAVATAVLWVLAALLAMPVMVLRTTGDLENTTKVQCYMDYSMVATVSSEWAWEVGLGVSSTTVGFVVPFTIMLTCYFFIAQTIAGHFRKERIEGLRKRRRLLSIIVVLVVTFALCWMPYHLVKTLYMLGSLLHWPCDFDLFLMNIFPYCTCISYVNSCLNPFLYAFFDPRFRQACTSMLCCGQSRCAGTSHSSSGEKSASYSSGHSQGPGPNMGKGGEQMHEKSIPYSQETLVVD", "experiment": "radioactive binding assay in GSCs using GP130-siRNA and anti-GP130 antibodies", "experimental": "Prior to binding experiments, 2×10⁶ GSCs were washed three times with DMEM/F12, and resuspended in binding buffer (DMEM/F12, 40 mM HEPES, 1% BSA). In order to determine the amount of nonspecific binding, 1 μM unlabeled [<Glu⁶⁵, Nle⁷⁵, Tyr⁷⁷]apelin-13 was added. Cells were pre-incubated with GP130 blocking antibody (2 μg/ml) when indicated. Cells were then incubated with 400 pM [¹²⁵I][<Glu⁶⁵,Nlc⁷⁵,Tyr⁷⁷]apelin-13 in agitation for 6 h at 4° C., and radioactivity was measured with a gamma counter (Beckman)."}, "[2]": {"target": "T2, HA-APJ (transfected in HEK-293T cells) (human, UniProt P35414 1-380)", "T2 construct": "HA-APJ construct from Dr. L. Zheng (Chun et al., 2008); also called APJ-HA; APJ-expression plasmid; not shown: HA tag", "T2 sequence": "T1 sequence", "experiment": "radioligand binding, membranes of HEK-293T transfected with APJ or with APJ and GP130", "experimental": "Homogenates were cleared by 5 min centrifugation at 3000 rpm. Then cells were resuspended in binding buffer ([…] Hepes, 5 mM MgCl2 and 1% BSA) and ultracentrifuged to obtain cell membranes. Membranes were then incubated with [125I][<Glu65,Nle75,Tyr77]apelin-13 (Perkin Elmer) in 100 μl of the binding buffer at room temperature for 90 min. In order to determine the amounts of nonspecific binding, unlabeled [<Glu65,Nle75,Tyr77] apelin-13 (Sigma) was simultaneously added After incubation, bound and free radioactivities were separated through rapid filtration using the glass-fiber filter units (GF/C, Packard Instrument Co.) of a cell harvester (Packard). Filter units were completely dried, and Microcinti O (Packard) was added to each well. The radioactivity of each well was counted with a TopCount liquid scintillation counter (Packard). The dissociation constant (Kd) and the number of binding sites (B max) were determined by the method of Scatchard."}}, "note": "Non-standard residues stand in square brackets, D forms with d. No end group written: not given here. pGlu = O=C1CC[C@@H](C(=O)O)N1; Nle = CCCC[C@H](N)C(=O)O"}
{"binder": "[pGlu]RPRLSHKGP[Nle]PY (also: 125I label, place not given here)", "note": "[[125I][<Glu65,Nle75,Tyr77]apelin-13]", "values": [{"measurement": "binding result", "setting": "[1]", "value": "binds"}, {"measurement": "binding result", "setting": "[2]", "value": "binds"}]}
